In patent publication US9879306B2, “Luciferase biosensors for cAMP” (PROMEGA CORPORATION, priority 2008, dated 2018):

Tests used:
GPR41 [1] = assay: Sodium proprionate CRC with biosensor variants in HEK293 cells stably expressing GPR41; type: cell-based; details: ratio of RLU of FSK treated well to untreated well
Experimental: (§1) After 24 hours, the cells were transiently transfected with one of the cAMP biosensor variants (Tables 7A and 7B). After another 24 hours, the cells were equilibrated for 2 hours at room temperature using 5 mM EF-luc in CO2 independent media with 10% FBS. Prior to the addition of the compounds, luminescence was measured. The compounds (12× stock in CO2 independent media without FBS) were then added to the cells. For GPR41 expressing cells, sodium proprionate CRC was added. […] The cells were allowed to incubate another 30 minutes and luminescence read on a Varioskan Flash. EC50 values and fold responses were calculated for each of the clones with each of the compounds with or without FSK. In addition, variants […]7 (Example VIIB), 16A2 (Example VIIB) and GS358 were also screened.

GPR41 [2] = molecular target: T1, GPR41 (Homo sapiens, UniProt O14843); assay: as above; type: cell-based; details: for Fold Response Na proprionate + FSK(1 μM): with FSK 1 μM; for Fold Response Na proprionate: without FSK, ratio of induced to uninduced signal
T1 sequence (O14843 1-346): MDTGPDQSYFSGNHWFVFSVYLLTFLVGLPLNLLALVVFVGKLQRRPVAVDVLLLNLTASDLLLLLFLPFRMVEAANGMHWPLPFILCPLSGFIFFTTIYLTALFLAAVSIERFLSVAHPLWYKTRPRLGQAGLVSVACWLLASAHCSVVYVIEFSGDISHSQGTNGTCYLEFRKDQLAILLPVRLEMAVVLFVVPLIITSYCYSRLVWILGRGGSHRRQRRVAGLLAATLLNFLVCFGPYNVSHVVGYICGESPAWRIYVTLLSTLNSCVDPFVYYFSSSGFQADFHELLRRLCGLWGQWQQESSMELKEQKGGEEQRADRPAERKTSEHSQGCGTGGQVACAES
Experimental: as §1

Molecule	Fold Signal Change (GPR41 [1]) [fold]	Fold Response Na proprionate + FSK(1 μM) (GPR41 [2]) [fold]	Fold Response Na proprionate (GPR41 [2]) [fold]
L9-LY: L9 background with Luc2.0 F518L and RIIβB F407Y; SEQ ID NO:100, 101 (protein) MPGAVGKVVPFFEAKVVDLDTGKTLGVNQRGELCVRGPMIMSGYVNNPEATNALIDKDGWLHSGDIAYWDEDEHFFIVDRLKSLIKYKGYQVAPAELESILLQHPNIFDAGVAGLPDDDAGELPAAVVVLEHGKTMTEKEIVDYVASQVTTAKKLRGGVVLVDEVPKGLTGKLDARKIREILIKAKKGSIAGCGDAGEGMYESFIESLPFLKSLEFSARLKVVDVIGTKVYNDGEQIIAQGDSADSFFIIESGEVKITMKRKGKSEVEENGAVEIARCSRGQYFGELALVTNKPRAASAHAIGTVKCLAMDVQAFERLLGPCMEIMKRNIATYEEQLVALYGTNMDIVAKNIKKGPAPFYPLEDGTAGEQLHKAMKRYALVPGTIAFTDAHIEVDITYAEYFEMSVRLAEAMKRYGLNTNHRIVVCSENSLQFFMPVLGALFIGVAVAPANDIYNERELLNSMGISQPTVVFVSKKGLQKILNVQKKLPIIQKIIIMDSKTDYQGFQSMYTFVTSHLPPGFNEYDFVPESFDRDKTIALIMNSSGSTGLPKGVALPHRTACVRFSHARDPIFGNQIIPDTAILSVVPFHHGFGMFTTLGYLICGFRVVLMYRFEEELFLRSLQDYKIQSALLVPTLFSFFAKSTLIDKYDLSNLHEIASGGAPLSKEVGEAVAKRFHLPGIRQGYGLTETTSAILITPEGV	126.7	5.57	2.07
L9-LQ: L9 background with Luc2.0 F518L, K541Q; SEQ ID NO:102, 103 (protein) MPGAVGKVVPFFEAKVVDLDTGKTLGVNQRGELCVRGPMIMSGYVNNPEATNALIDKDGWLHSGDIAYWDEDEHFFIVDRLKSLIKYKGYQVAPAELESILLQHPNIFDAGVAGLPDDDAGELPAAVVVLEHGKTMTEKEIVDYVASQVTTAKKLRGGVVLVDEVPKGLTGKLDARKIREILIQAKKGSIAGCGDAGEGMYESFIESLPFLKSLEFSARLKVVDVIGTKVYNDGEQIIAQGDSADSFFIIESGEVKITMKRKGKSEVEENGAVEIARCSRGQYFGELALVTNKPRAASAHAIGTVKCLAMDVQAFERLLGPCMEIMKRNIATYEEQLVALFGTNMDIVAKNIKKGPAPFYPLEDGTAGEQLHKAMKRYALVPGTIAFTDAHIEVDITYAEYFEMSVRLAEAMKRYGLNTNHRIVVCSENSLQFFMPVLGALFIGVAVAPANDIYNERELLNSMGISQPTVVFVSKKGLQKILNVQKKLPIIQKIIIMDSKTDYQGFQSMYTFVTSHLPPGFNEYDFVPESFDRDKTIALIMNSSGSTGLPKGVALPHRTACVRFSHARDPIFGNQIIPDTAILSVVPFHHGFGMFTTLGYLICGFRVVLMYRFEEELFLRSLQDYKIQSALLVPTLFSFFAKSTLIDKYDLSNLHEIASGGAPLSKEVGEAVAKRFHLPGIRQGYGLTETTSAILITPEGV	98.6	7.20	2.83
L9-QY: L9 background with Luc2.0 K541Q and RIIβB F407Y; SEQ ID NO:90, 91 (protein) MPGAVGKVVPFFEAKVVDLDTGKTLGVNQRGELCVRGPMIMSGYVNNPEATNALIDKDGWLHSGDIAYWDEDEHFFIVDRLKSLIKYKGYQVAPAELESILLQHPNIFDAGVAGLPDDDAGELPAAVVVLEHGKTMTEKEIVDYVASQVTTAKKLRGGVVFVDEVPKGLTGKLDARKIREILIQAKKGSIAGCGDAGEGMYESFIESLPFLKSLEFSARLKVVDVIGTKVYNDGEQIIAQGDSADSFFIIESGEVKITMKRKGKSEVEENGAVEIARCSRGQYFGELALVTNKPRAASAHAIGTVKCLAMDVQAFERLLGPCMEIMKRNIATYEEQLVALYGTNMDIVAKNIKKGPAPFYPLEDGTAGEQLHKAMKRYALVPGTIAFTDAHIEVDITYAEYFEMSVRLAEAMKRYGLNTNHRIVVCSENSLQFFMPVLGALFIGVAVAPANDIYNERELLNSMGISQPTVVFVSKKGLQKILNVQKKLPIIQKIIIMDSKTDYQGFQSMYTFVTSHLPPGFNEYDFVPESFDRDKTIALIMNSSGSTGLPKGVALPHRTACVRFSHARDPIFGNQIIPDTAILSVVPFHHGFGMFTTLGYLICGFRVVLMYRFEEELFLRSLQDYKIQSALLVPTLFSFFAKSTLIDKYDLSNLHEIASGGAPLSKEVGEAVAKRFHLPGIRQGYGLTETTSAILITPEGV	61.3	10.02	2.01
L9-LQY: L9 background with Luc2.0 F518L, K541Q and RIIβB F407Y; SEQ ID NO:88, 89 (protein) MPGAVGKVVPFFEAKVVDLDTGKTLGVNQRGELCVRGPMIMSGYVNNPEATNALIDKDGWLHSGDIAYWDEDEHFFIVDRLKSLIKYKGYQVAPAELESILLQHPNIFDAGVAGLPDDDAGELPAAVVVLEHGKTMTEKEIVDYVASQVTTAKKLRGGVVLVDEVPKGLTGKLDARKIREILIQAKKGSIAGCGDAGEGMYESFIESLPFLKSLEFSARLKVVDVIGTKVYNDGEQIIAQGDSADSFFIIESGEVKITMKRKGKSEVEENGAVEIARCSRGQYFGELALVTNKPRAASAHAIGTVKCLAMDVQAFERLLGPCMEIMKRNIATYEEQLVALYGTNMDIVAKNIKKGPAPFYPLEDGTAGEQLHKAMKRYALVPGTIAFTDAHIEVDITYAEYFEMSVRLAEAMKRYGLNTNHRIVVCSENSLQFFMPVLGALFIGVAVAPANDIYNERELLNSMGISQPTVVFVSKKGLQKILNVQKKLPIIQKIIIMDSKTDYQGFQSMYTFVTSHLPPGFNEYDFVPESFDRDKTIALIMNSSGSTGLPKGVALPHRTACVRFSHARDPIFGNQIIPDTAILSVVPFHHGFGMFTTLGYLICGFRVVLMYRFEEELFLRSLQDYKIQSALLVPTLFSFFAKSTLIDKYDLSNLHEIASGGAPLSKEVGEAVAKRFHLPGIRQGYGLTETTSAILITPEGV	136.0	13.78	1.95
L9-IY: L9 background with Luc2.0 F369I and RIIβB F407Y; SEQ ID NO:76, 77 (protein) MPGAVGKVVPFIEAKVVDLDTGKTLGVNQRGELCVRGPMIMSGYVNNPEATNALIDKDGWLHSGDIAYWDEDEHFFIVDRLKSLIKYKGYQVAPAELESILLQHPNIFDAGVAGLPDDDAGELPAAVVVLEHGKTMTEKEIVDYVASQVTTAKKLRGGVVFVDEVPKGLTGKLDARKIREILIKAKKGSIAGCGDAGEGMYESFIESLPFLKSLEFSARLKVVDVIGTKVYNDGEQIIAQGDSADSFFIIESGEVKITMKRKGKSEVEENGAVEIARCSRGQYFGELALVTNKPRAASAHAIGTVKCLAMDVQAFERLLGPCMEIMKRNIATYEEQLVALYGTNMDIVAKNIKKGPAPFYPLEDGTAGEQLHKAMKRYALVPGTIAFTDAHIEVDITYAEYFEMSVRLAEAMKRYGLNTNHRIVVCSENSLQFFMPVLGALFIGVAVAPANDIYNERELLNSMGISQPTVVFVSKKGLQKILNVQKKLPIIQKIIIMDSKTDYQGFQSMYTFVTSHLPPGFNEYDFVPESFDRDKTIALIMNSSGSTGLPKGVALPHRTACVRFSHARDPIFGNQIIPDTAILSVVPFHHGFGMFTTLGYLICGFRVVLMYRFEEELFLRSLQDYKIQSALLVPTLFSFFAKSTLIDKYDLSNLHEIASGGAPLSKEVGEAVAKRFHLPGIRQGYGLTETTSAILITPEGV	86.4		2.53
L9-IQY: L9 background with Luc2.0 F369I, K541Q and RIIβB F407Y; SEQ ID NO:78, 79 (protein) MPGAVGKVVPFIEAKVVDLDTGKTLGVNQRGELCVRGPMIMSGYVNNPEATNALIDKDGWLHSGDIAYWDEDEHFFIVDRLKSLIKYKGYQVAPAELESILLQHPNIFDAGVAGLPDDDAGELPAAVVVLEHGKTMTEKEIVDYVASQVTTAKKLRGGVVFVDEVPKGLTGKLDARKIREILIQAKKGSIAGCGDAGEGMYESFIESLPFLKSLEFSARLKVVDVIGTKVYNDGEQIIAQGDSADSFFIIESGEVKITMKRKGKSEVEENGAVEIARCSRGQYFGELALVTNKPRAASAHAIGTVKCLAMDVQAFERLLGPCMEIMKRNIATYEEQLVALYGTNMDIVAKNIKKGPAPFYPLEDGTAGEQLHKAMKRYALVPGTIAFTDAHIEVDITYAEYFEMSVRLAEAMKRYGLNTNHRIVVCSENSLQFFMPVLGALFIGVAVAPANDIYNERELLNSMGISQPTVVFVSKKGLQKILNVQKKLPIIQKIIIMDSKTDYQGFQSMYTFVTSHLPPGFNEYDFVPESFDRDKTIALIMNSSGSTGLPKGVALPHRTACVRFSHARDPIFGNQIIPDTAILSVVPFHHGFGMFTTLGYLICGFRVVLMYRFEEELFLRSLQDYKIQSALLVPTLFSFFAKSTLIDKYDLSNLHEIASGGAPLSKEVGEAVAKRFHLPGIRQGYGLTETTSAILITPEGV	96.0		3.82
